Source: PMC2535662, “Identification of COUP-TFII Orphan Nuclear Receptor as a Retinoic Acid–Activated Receptor” (PLoS Biology, 2008)
Blank lines part the entries; values can stand above or below the molecule they belong to. Where no end group is shown, it is not given here.

Legend:
COUP-TFII = target: T1, COUP-TFII (Homo sapiens, UniProt P24468, C174S); assay: AlphaScreen ligand-dependent coactivator peptide recruitment to purified LBD; also NGFI-A luciferase reporter in COS-7 cells; format: binding
T1 construct: gene NR2F2; LBD (residues 173–414 with C174S mutation), 6X His-GST fusion protein
T1 sequence (P24468 173-414 C174S): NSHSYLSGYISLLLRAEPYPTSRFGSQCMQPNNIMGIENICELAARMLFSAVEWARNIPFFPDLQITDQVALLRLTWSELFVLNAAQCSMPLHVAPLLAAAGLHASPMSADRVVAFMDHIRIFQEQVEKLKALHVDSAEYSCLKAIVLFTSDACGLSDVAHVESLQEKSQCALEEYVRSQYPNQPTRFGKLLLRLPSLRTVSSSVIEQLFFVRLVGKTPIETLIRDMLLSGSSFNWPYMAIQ

[1] = target: full-length COUP-TFII (mouse expression plasmid) (mouse) (UniProt P43135)
[2] = target: COUP-TFII L364A/L365A double mutant (mouse) (UniProt P43135)
[3] = target: the molecule itself; assay: crystal structure; ligand-free LBD, no cofactor peptide; hanging drops at 20 °C, well buffer 1.3 M or 1.5 M imidazole pH 5.6 and 1% Pluronic F68; space group C2, one LBD per asymmetric unit, symmetric dimer through crystal packing
[4] = target: T2, 6X His-GST-COUP-TFII LBD fusion protein (human, UniProt P24468 173-414, C174S); assay: AlphaScreen or HTRF; approximately 0.4 μM 6X His-GST receptor LBD and 0.1 μM biotinylated peptide, 20 μg/ml donor and acceptor beads; 50 mM MOPS, 50 mM NaF, 50 mM CHAPS, 0.1 mg/ml bovine serum albumin, pH 7.4; with 50 μM 9-cis-retinoic acid; settings: both partners purified
T2 construct: The limits and C174S come from the protein preparation paragraph; also called receptor LBD; source: E. coli BL21 (DE3), purified as a 6X His-GST fusion protein; not shown: 6x Histidine, N-terminal, kept; GST, N-terminal, kept
T2 sequence (looked up): T1 sequence (P24468 173-414 C174S)

Molecule: CC1=C(/C=C/C(C)=C\C=C\C(C)=C\C(=O)O)C(C)(C)CCC1 [9cRA, 9-cis-retinoic acid]
- EC50 (COUP-TFII): 17 µM

Molecule: CC1=C(/C=C/C(C)=C/C=C/C(C)=C/C(=O)O)C(C)(C)CCC1 [ATRA, all-trans-retinoic acid]
- EC50 (COUP-TFII): 26 µM

- NGFI-A promoter luciferase reporter in COS-7 cells, COUP-TFII cotransfected with SRC-3, relative to COUP-TFII alone [1]: > 2 fold
Molecule: SRC-3 (wild type) (from UniProt Q9Y6Q9 1-1424) (natural protein)

- activation of the NGFI-A promoter luciferase reporter in COS-7 cells, relative to wild-type COUP-TFII [2]: 20%
B1: COUP-TFII L364A/L365A double mutant (natural protein)
chain: MAMVVSTWRDPQDEVPGSQGSQASQAPPVPGPPPGAPHTPQTPGQGGPASTPAQTAAGGQGGPGGPGSDKQQQQQHIECVVCGDKSSGKHYGQFTCEGCKSFFKRSVRRNLSYTCRANRNCPIDQHHRNQCQYCRLKKCLKVGMRREAVQRGRMPPTQPTHGQFALTNGDPLNCHSYLSGYISLLLRAEPYPTSRFGSQCMQPNNIMGIENICELAARMLFSAVEWARNIPFFPDLQITDQVALLRLTWSELFVLNAAQCSMPLHVAPLLAAAGLHASPMSADRVVAFMDHIRIFQEQVEKLKALHVDSAEYSCLKAIVLFTSDACGLSDVAHVESLQEKSQCALEEYVRSQYPNQPTRFGKLAARLPSLRTVSSSVIEQLFFVRLVGKTPIETLIRDMLLSGSSFNWPYMAIQ

B2: human COUP-TFII ligand-binding domain (residues 173–414, C174S), tag cleaved (domain or fragment, UniProt P24468 173-414, looked up)
chain: T1 sequence (P24468 173-414 C174S)
notes: Ligand-free; One LBD per asymmetric unit; The model lacks 13 residues between α1 and α3, 17 residues between α5 and α6, and the C-terminal seven residues; also called COUP-TFII LBD; apo-COUP-TFII; source: E. coli BL21 (DE3), purified (glutathione-sepharose, thrombin cleavage, Ni2+ chelating sepharose); not shown: 6x Histidine, N-terminal, cleaved; GST, N-terminal, cleaved
- binding result [3]: binds

- binding result [4]: binds
Molecule: AENQRGPLESKGHKKLLQLLTSS (also: biotinylated, position not given here) [biotinylated SRC3–1 peptide]
